Measured values: publication PMC11289257 (2024)

Tests used:
[1] = target: T1, African swine fever virus major capsid protein p72 (p72 capsomer, trimer) (African swine fever virus, UniProt P22776); assay: SPR
[2] = target: T1, African swine fever virus major capsid …; assay: SPR; remark: listed apart in the source

B1: porcine antibody C9 (class III) (Fab, V domains shown)
VH: EVKLVESGGGLVQPGGSLRLSCVGSGFTFSSYEINWVRQAPGKGLEWLAVVSKIGDRTYYADSVRGRLTISRDNSQNTAYLQMNSLRTEDTARYYCVRAWCASTCLPGDIMDLWGPGVGVVVSS
VL: QTVIQEPAMSVSPGGTVTLTCAWSSGSVTTSNYPSWFQQTPGQPPRQLIYNTNSRPTGVPRRFSGKISGNKAALTITGAQAEDEADYFCGLYKRSANNIFGGGTHLTVL
Kd [1]: 1490 nM
koff [2]: 0.00893 s⁻¹

B2: porcine antibody H3 (class III) (Fab, V domains shown)
VH: QEKLVESGGGLVQPGGSLILSCVGSGFTFITYEINWVRQAPGKGLEWLAVVSKIGDRTYYAHSVRGRLTISRDNSQNTAYLQMNSLRTEDTARYYCVRAWCATTCLPGDIMDLWGPGVGVIV
VL: TVIHEPAMSLSPGGTDTLTCAFSSGSITNNNYPSWFQQTPRQPPRLLIYNTNNRPTGVPSRFSGAISGNKAALTITGAQANDEADYFCTLYISIADVIFGGGTHLTVL
Kd [1]: 998 nM
koff [2]: 0.00494 s⁻¹

B3: porcine antibody B1 (class I) (Fab, V domains shown)
VH: EVKLVESGGGLVQPGGSLKLSCVGSGSTFSSDAVSWVRQAPGKGLEWLAGIDGDGGGGSTYYADSVKGRFTISRDNSQKTAYLQMNSLRTDDTARYYCAECPMVLLAKCSMEFWGPGVEVVVS
VL: DIVLTQTPRSLSVSPGEPASISCRSSQSLEEYGKNWLSWYQQKPGQSPRLLIYQATNRASWVPERFSGSGSGTDFTLKISRVEAEDVGVYYCFQDLQPPNGFGAGTKLELK
Kd [1]: 3.12 nM
koff [2]: 7.08e-05 s⁻¹

B4: porcine antibody G6 (class IV) (Fab, V domains shown)
VH: EVKLVESGGGLVQPGGSLTLSCVGSGYTFSSYPICWVRQAPGKGLEWLSCIDSSGSKMHLADSVLSRFTISKDNSQNTAYLQMNSLRTEDTARYYCARGRWCYGVICDMDLWGPGVEVVVSS
VL: IVLTQTPLSLSVSPGEPASISCRSSQSLEEYGKNWLSWYQQKPGQSPRLLIYQATNRASWVPERFSGSGSGTDFTLKISRVEAEDAGVYYCQQYKEFPWTFGQGTKLELK
Kd [1]: 1920 nM
koff [2]: 0.00952 s⁻¹

B5: porcine antibody F11 (class II) (Fab, V domains shown)
VH: EEKLVESGGGLVKPGGSLKLSCVGSGSTFSSDAVSWVRQAPGKGLEWLAGIDGDGYGVSTYYADSVKGRFTISRDNSQKTAYLQMNSLRTDDTARYYCAECPMVLLAKCSMEFWGPGVEVVVSS
VL: QTVIQEPAMSVSLGGTVTLTCAFSSGSVTSSNYPGWFQQTPGQPPRLLIYQTNSRPTGVPSRFSGAISGNRAALTITGAQAEDEADYFCGLWKSGTDLPFGGGTHLTVL
Kd [1]: 9.13 nM
koff [2]: 0.000267 s⁻¹

B6: porcine antibody F5 (class II) (antibody, V domains shown)
VH: EEKLVESGGGLVKPGGSLKLSCVGSGSTFSSDAVSWVRQAPGKGLEWLAGIDGDGYGVSTYYADSVKGRFTISRDNSQKTAYLQMNSLRTDDTARYYCAECPMVLLAKCSMEFWGPGVEVVVSS
VL: QTVIQEPAMSVSPGGTVTLTCAFSSGSVTTRNYPSWFQQTPGQPPRLLIGRTNNRPTGVPSRFSGVISGNKAALVITGAQANDEATYFCSLYSPDTIIFGSGTHLTVL
Kd [1]: 3160 nM
koff [2]: 0.0134 s⁻¹
